Read-outs that look alike come from different tables or passages of the source. Residues, ends and D or L forms follow the SMILES beside them. *: point of attachment. HYNIC = NNc1ccc(C(=O)*)cn1
Tests used:
[1] = In vitro stability in succinate buffer (peptide reaction mixture), %RCP by ITLC; assay type: physicochemical; details: room temperature, TLC, n = 3
Protocol: The radiochemical purity was determined by instant thin layer chromatography (ITLC) in different mobile phases such as methyl ethyl ketone (MEK), acetonitrile/water (50/50) and citrate solvent (0.1 M, pH 5.2) using a Lablogic mini scan TLC scanner (Sheffield, UK) and Laura image analysis software. In MEK, free ^99mTcO4^− migrated with the solvent front, while radiolabeled peptide remained at the application point. In the acetonitrile/water system, the colloids remained at the application point, while radiolabeled peptide migrated in front of solvent. The amount of labeled co-ligand was determined by citrate solvent, that free ^99mTcO4 Na and labeled co-ligand migrate in front of solvent while both RHT and labeled peptide (^99mTc-FROP) remind at the origin. A NaI (Tl) gamma detector (Delshid, Tehran, Iran) was used to for measurement of radioactivity.
[…] For serum stability, ^99mTc-HYNIC-FROP (30 μL) was incubated with freshly human plasma serum (90 μL) in triplicate at 37 °C. At 1 h of incubation, the plasma proteins were precipitated with a mixture of acetonitrile/ethanol (1:1 v/v) and centrifugation. The supernatant layer was filtered through a 0.22 μm filter and then the fraction was analyzed by RP-HPLC. Partition coefficient of ^99mTc-HYNIC-FROP was determined via method that previously was described.

[2] = Biodistribution in MCF-7 tumor-bearing nude mice; assay type: in vivo; details: female, C57 nu/nu, mouse, iv, total radioactivity; for tissue uptake at 0.5 h / tissue to tissue ratio at 0.5 h: 30 min p.i.
Protocol: The all animal studies were approved by Research and Ethical Committees of Mazandaran University of Medical Sciences. For xenografting, female C57 nu/nu mice were injected subcutaneously on the right upper back with a suspension of 1 × 10^7 MCF-7 cells and Matrigel® (BD, USA) and the tumors were allowed to grow for about 7–8 weeks. Estradiol valerate was injected subcutaneously into nude mice for 1 week. After tumor size reached in 1 cm^3, this tumor was removed from mouse in aseptic condition and was mechanically squelched with a mortar and with adding complete medium. Squelch of tumor tissue was centrifuged at 1500 rpm for 7 min at 4 °C. The upper medium was removed from tube and then complete medium and estradiol were added to cells pellet. […] Xenografts were allowed to develop during 2 months and the average tumor size was 1.01 ± 0.24 g. The in vivo biodistribution of ^99mTc-HYNIC-(tricine/EDDA)-Lys-FROP was performed on tumor bearing mice at 15 and 30 min post-injection. The mice (four mice in each time group) were injected with 100 μL of HYNIC-(tricine/EDDA)-Lys-FROP (1 μg) via a lateral tail vein. Mice were sacrificed with injection of a lethal dose of ketamine/xylazine after 15 and 30 min. The blood was collected from the heart puncture and the mice were dissected. Major organs (tumor, blood, heart, lung, liver, kidney, spleen, salivary gland, stomach, intestine, muscle and bone) were placed into pre weighed gamma counter tubes and radioactivity in each organ and tissue was measured using a gamma counter and expressed as a percent injected dose (% ID/g).
To confirm that the radiolabeled peptide was taken up specifically by MCF-7 tumor in vivo, the biodistribution of ^99mTc-HYNIC-FROP was performed with co-injection of a 500-fold (0.5 mg) excess non-radiolabelled FROP-1 and radiolabelled peptide in mice (N = 3 mice in this group). The unlabeled peptide was injected at 30 min before the injection of radiolabeled peptide.

With `CSCC[C@H](NC(=O)[C@H](CC(C)C)NC(=O)[C@H](CCC(=O)O)NC(=O)[C@H](Cc1ccc(O)cc1)NC(=O)[C@H](CC(=O)O)NC(=O)[C@@H](N)CCC(=O)O)C(=O)N[C@@H](CC(=O)O)C(=O)N[C@@H](CC(C)C)C(=O)N[C@@H](CC(C)C)C(=O)N[C@@H](C)C(=O)N[C@@H](Cc1ccc(O)cc1)C(=O)N[C@@H](CC(C)C)C(=O)N[C@@H](CCCCNC(=O)c1ccc(NN)nc1)C(=O)O` [^99mTc-HYNIC-FROP, metal not drawn] (H-EDYELMDLLAYLK(HYNIC)-OH) the “%RCP in succinate buffer (peptide reaction mixture)” value (“%RCP in succinate buffer” below) ([1]; 2 h) was 99.6 ± 0.2%, the “%RCP in succinate buffer” value ([1]; 4 h) was 99.5 ± 0.4% and the “%RCP in succinate buffer” value ([1]; 6 h) was 99.1 ± 0.9%. The “%RCP in succinate buffer” value ([1]; 24 h) was 96.8 ± 2.4%, the tissue uptake at 0.25 h ([2]; blood, 1 ug, i.v. tail vein 1 μg, 15 min p.i., n = 4, read-out: Blood uptake) was 0.48 ± 0.09 %ID/g and the tissue uptake at 0.5 h ([2]; blood, 1 ug, i.v. tail vein 1 μg, n = 4, read-out: Blood uptake) was 0.35 ± 0.1 %ID/g. It also gave a tissue uptake at 0.25 h ([2]; blood, Block: 500-fold (0.5 mg) excess unlabelled FROP-1, 15 min p.i., n = 3, read-out: Blood uptake) of 0.69 ± 0.16 %ID/g, a tissue uptake at 0.25 h ([2]; bone, 1 ug, i.v. tail vein 1 μg, 15 min p.i., n = 4, read-out: Bone uptake) of 0.18 ± 0.02 %ID/g and a tissue uptake at 0.5 h ([2]; bone, 1 ug, i.v. tail vein 1 μg, n = 4, read-out: Bone uptake) of 0.24 ± 0.12 %ID/g. The tissue uptake at 0.25 h ([2]; heart, 1 ug, i.v. tail vein 1 μg, 15 min p.i., n = 4, read-out: Heart uptake) was 0.49 ± 0.08 %ID/g, the tissue uptake at 0.5 h ([2]; heart, 1 ug, i.v. tail vein 1 μg, n = 4, read-out: Heart uptake) was 0.26 ± 0.11 %ID/g and the tissue uptake at 0.25 h ([2]; heart, Block: 500-fold (0.5 mg) excess unlabelled FROP-1, 15 min p.i., n = 3, read-out: Heart uptake) was 0.45 ± 0.03 %ID/g. The tissue uptake at 0.25 h ([2]; intestine, 1 ug, i.v. tail vein 1 μg, 15 min p.i., n = 4, read-out: Intestine uptake) was 0.34 ± 0.09 %ID/g, the tissue uptake at 0.5 h ([2]; intestine, 1 ug, i.v. tail vein 1 μg, n = 4, read-out: Intestine uptake) was 0.79 ± 0.25 %ID/g and the tissue uptake at 0.25 h ([2]; intestine, Block: 500-fold (0.5 mg) excess unlabelled FROP-1, 15 min p.i., n = 3, read-out: Intestine uptake) was 0.64 ± 0.09 %ID/g. It also gave a tissue uptake at 0.25 h ([2]; 1 ug, MCF-7 tumor, i.v. tail vein 1 μg, 15 min p.i., n = 4, read-out: Tumor uptake) of 0.25 ± 0.02 %ID/g, a tissue uptake at 0.5 h ([2]; 1 ug, MCF-7 tumor, i.v. tail vein 1 μg, n = 4, read-out: Tumor uptake) of 0.38 ± 0.21 %ID/g and a tissue uptake at 0.25 h ([2]; MCF-7 tumor, Block: 500-fold (0.5 mg) excess unlabelled FROP-1, 15 min p.i., n = 3, read-out: Tumor uptake) of 0.09 ± 0.02 %ID/g. For the same compound, the tissue uptake at 0.25 h ([2]; kidney, 1 ug, i.v. tail vein 1 μg, 15 min p.i., n = 4, read-out: Kidney uptake) was 2.22 ± 0.16 %ID/g, the tissue uptake at 0.5 h ([2]; kidney, 1 ug, i.v. tail vein 1 μg, n = 4, read-out: Kidney uptake) was 1.73 ± 0.15 %ID/g and the tissue uptake at 0.25 h ([2]; kidney, Block: 500-fold (0.5 mg) excess unlabelled FROP-1, 15 min p.i., n = 3, read-out: Kidney uptake) was 2.97 ± 0.23 %ID/g. For the same compound, the tissue uptake at 0.25 h ([2]; liver, 1 ug, i.v. tail vein 1 μg, 15 min p.i., n = 4, read-out: Liver uptake) was 0.2 ± 0.02 %ID/g, the tissue uptake at 0.5 h ([2]; liver, 1 ug, i.v. tail vein 1 μg, n = 4, read-out: Liver uptake) was 0.14 %ID/g and the tissue uptake at 0.25 h ([2]; liver, Block: 500-fold (0.5 mg) excess unlabelled FROP-1, 15 min p.i., n = 3, read-out: Liver uptake) was 0.26 ± 0.04 %ID/g. For the same compound, the tissue uptake at 0.25 h ([2]; lung, 1 ug, i.v. tail vein 1 μg, 15 min p.i., n = 4, read-out: Lung uptake) was 0.45 ± 0.08 %ID/g, the tissue uptake at 0.5 h ([2]; lung, 1 ug, i.v. tail vein 1 μg, n = 4, read-out: Lung uptake) was 0.41 ± 0.26 %ID/g and the tissue uptake at 0.25 h ([2]; lung, Block: 500-fold (0.5 mg) excess unlabelled FROP-1, 15 min p.i., n = 3, read-out: Lung uptake) was 0.6 ± 0.04 %ID/g. For the same compound, the tissue uptake at 0.25 h ([2]; muscle, 1 ug, i.v. tail vein 1 μg, 15 min p.i., n = 4, read-out: Muscle uptake) was 0.08 ± 0.01 %ID/g, the tissue uptake at 0.5 h ([2]; muscle, 1 ug, i.v. tail vein 1 μg, n = 4, read-out: Muscle uptake) was 0.21 ± 0.16 %ID/g and the tissue uptake at 0.25 h ([2]; muscle, Block: 500-fold (0.5 mg) excess unlabelled FROP-1, 15 min p.i., n = 3, read-out: Muscle uptake) was 0.15 ± 0.01 %ID/g. The tissue uptake at 0.25 h ([2]; salivary gland and thyroid, 1 ug, i.v. tail vein 1 μg, 15 min p.i., n = 4, read-out: S.T (Salivary Gland and Thyroid) uptake) was 0.25 ± 0.03 %ID/g, the tissue uptake at 0.5 h ([2]; salivary gland and thyroid, 1 ug, i.v. tail vein 1 μg, n = 4, read-out: S.T (Salivary Gland and Thyroid) uptake) was 0.32 ± 0.22 %ID/g and the tissue uptake at 0.25 h ([2]; salivary gland and thyroid, Block: 500-fold (0.5 mg) excess unlabelled FROP-1, 15 min p.i., n = 3, read-out: S.T (Salivary Gland and Thyroid) uptake) was 0.25 ± 0.01 %ID/g. It also gave a tissue uptake at 0.25 h ([2]; spleen, 1 ug, i.v. tail vein 1 μg, 15 min p.i., n = 4, read-out: Spleen uptake) of 0.15 ± 0.01 %ID/g, a tissue uptake at 0.5 h ([2]; spleen, 1 ug, i.v. tail vein 1 μg, n = 4, read-out: Spleen uptake) of 0.28 ± 0.11 %ID/g and a tissue uptake at 0.25 h ([2]; spleen, Block: 500-fold (0.5 mg) excess unlabelled FROP-1, 15 min p.i., n = 3, read-out: Spleen uptake) of 0.23 ± 0.07 %ID/g. The tissue uptake at 0.25 h ([2]; stomach, 1 ug, i.v. tail vein 1 μg, 15 min p.i., n = 4, read-out: Stomach uptake) was 0.21 ± 0.01 %ID/g, the tissue uptake at 0.5 h ([2]; stomach, 1 ug, i.v. tail vein 1 μg, n = 4, read-out: Stomach uptake) was 0.33 ± 0.12 %ID/g and the tissue uptake at 0.25 h ([2]; stomach, Block: 500-fold (0.5 mg) excess unlabelled FROP-1, 15 min p.i., n = 3, read-out: Stomach uptake) was 0.26 ± 0.01 %ID/g. For the same compound, the tissue to tissue ratio at 0.25 h ([2]; tumor and blood, 1 ug, 15 min p.i., n = 4, read-out: Tumor/Blood ratio) was 0.53 ± 0.15, the tissue to tissue ratio at 0.5 h ([2]; tumor and blood, 1 ug, n = 4, read-out: Tumor/Blood ratio) was 1.09 ± 0.47 and the tissue to tissue ratio at 0.25 h ([2]; tumor and blood, Block with excess FROP-1, 15 min p.i., n = 3, read-out: Tumor/Blood ratio) was 0.14 ± 0.06. It also gave a tissue to tissue ratio at 0.25 h ([2]; tumor and bone, 1 ug, 15 min p.i., n = 4, read-out: Tumor/Bone ratio) of 1.36 ± 0.28, a tissue to tissue ratio at 0.5 h ([2]; tumor and bone, 1 ug, n = 4, read-out: Tumor/Bone ratio) of 1.57 ± 0.48 and a tissue to tissue ratio at 0.25 h ([2]; tumor and bone, Block with excess FROP-1, 15 min p.i., n = 3, read-out: Tumor/Bone ratio) of 0.4 ± 0.09. It also gave a tissue to tissue ratio at 0.25 h ([2]; tumor and liver, 1 ug, 15 min p.i., n = 4, read-out: Tumor/Liver ratio) of 1.24 ± 0.28, a tissue to tissue ratio at 0.5 h ([2]; tumor and liver, 1 ug, n = 4, read-out: Tumor/Liver ratio) of 2.62 ± 1.38 and a tissue to tissue ratio at 0.25 h ([2]; tumor and liver, Block with excess FROP-1, 15 min p.i., n = 3, read-out: Tumor/Liver ratio) of 0.36 ± 0.13. It also gave a tissue to tissue ratio at 0.25 h ([2]; tumor and muscle, 1 ug, 15 min p.i., n = 4, read-out: Tumor/Muscle ratio) of 3.03 ± 0.12, a tissue to tissue ratio at 0.5 h ([2]; tumor and muscle, 1 ug, n = 4, read-out: Tumor/Muscle ratio) of 1.94 ± 0.46 and a tissue to tissue ratio ([2]; tumor and muscle, 1 ug, MCF-7 tumor-bearing nude mice, only 15 and 30 min p.i. tested, read-out: time of maximum tumor/muscle ratio) of 15. It also gave a tissue to tissue ratio at 0.25 h ([2]; tumor and muscle, Block with excess FROP-1, 15 min p.i., n = 3, read-out: Tumor/Muscle ratio) of 0.6 ± 0.12, a tissue to tissue ratio at 0.25 h ([2]; tumor and spleen, 1 ug, 15 min p.i., n = 4, read-out: Tumor/Spleen ratio) of 1.61 ± 0.22 and a tissue to tissue ratio at 0.5 h ([2]; tumor and spleen, 1 ug, n = 4, read-out: Tumor/Spleen ratio) of 1.56 ± 1.04. For the same compound, the tissue to tissue ratio at 0.25 h ([2]; tumor and spleen, Block with excess FROP-1, 15 min p.i., n = 3, read-out: Tumor/Spleen ratio) was 0.42 ± 0.14.

— PMC5817723, “^99mTc-HYNIC-(tricine/EDDA)-FROP peptide for MCF-7 breast tumor targeting and imaging” (Journal of Biomedical Science, 2018)
